Here are results for two molecules from paper PMC7311471, “The iron–sulphur cluster in human DNA2 is required for all biochemical activities of DNA2”.

Series [1] addresses T1, DNA2 D277A (human, UniProt P51530 1-1060, D277A).
T1 sequence: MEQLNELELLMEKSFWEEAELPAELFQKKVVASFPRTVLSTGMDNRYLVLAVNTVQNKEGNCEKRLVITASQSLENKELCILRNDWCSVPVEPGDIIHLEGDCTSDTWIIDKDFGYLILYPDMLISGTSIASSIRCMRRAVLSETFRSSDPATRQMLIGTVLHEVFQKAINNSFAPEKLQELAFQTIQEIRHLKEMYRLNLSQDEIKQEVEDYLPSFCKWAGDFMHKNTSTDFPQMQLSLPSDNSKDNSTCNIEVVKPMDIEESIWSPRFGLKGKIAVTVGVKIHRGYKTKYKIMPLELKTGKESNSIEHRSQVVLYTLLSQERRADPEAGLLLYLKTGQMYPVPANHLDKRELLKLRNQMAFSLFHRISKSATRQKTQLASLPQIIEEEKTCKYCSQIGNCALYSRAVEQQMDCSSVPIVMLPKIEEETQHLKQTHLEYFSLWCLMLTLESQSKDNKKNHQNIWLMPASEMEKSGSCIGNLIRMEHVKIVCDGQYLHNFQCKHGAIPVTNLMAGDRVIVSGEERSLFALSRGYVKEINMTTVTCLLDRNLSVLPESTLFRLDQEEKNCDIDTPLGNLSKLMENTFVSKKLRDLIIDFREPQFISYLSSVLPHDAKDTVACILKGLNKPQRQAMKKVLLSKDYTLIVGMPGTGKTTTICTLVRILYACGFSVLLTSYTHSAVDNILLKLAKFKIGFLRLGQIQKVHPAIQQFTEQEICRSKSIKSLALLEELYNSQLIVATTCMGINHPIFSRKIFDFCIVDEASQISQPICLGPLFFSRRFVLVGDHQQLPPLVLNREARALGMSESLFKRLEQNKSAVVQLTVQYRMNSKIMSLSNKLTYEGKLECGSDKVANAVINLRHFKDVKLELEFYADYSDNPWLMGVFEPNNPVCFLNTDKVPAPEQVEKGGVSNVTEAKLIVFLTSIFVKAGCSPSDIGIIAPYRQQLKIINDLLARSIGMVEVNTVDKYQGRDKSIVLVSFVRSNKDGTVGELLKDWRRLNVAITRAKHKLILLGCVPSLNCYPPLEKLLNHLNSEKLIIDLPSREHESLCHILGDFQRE
As to the kind of experiment: EMSA; similar affinity as WT; EMSA: 25 mM Tris-HCl pH 8.0, 0.1 mg/ml BSA, 5 mM EDTA, with or without 1 mM DTT, 30 min on ice; 4-5 nM FAM-DNA or 1 nM 32P-DNA. The following applies: protein: recombinant; tags: FLAG; 5' flap 32 nt on strand 1; 1:2 and 2:3 paired.

The target in series [2] is T1, DNA2 D277A. The series is described as follows: EMSA; EMSA: 25 mM Tris-HCl pH 8.0, 0.1 mg/ml BSA, 5 mM EDTA, with or without 1 mM DTT, 30 min on ice; 4-5 nM FAM-DNA or 1 nM 32P-DNA. The following applies: protein: recombinant; tags: FLAG; label: 3' 32P cordycepin on X04; fork 1:2, 5' arm 32 nt, 3' arm 30 nt. Background: A gel shift assay detects complexes by their altered migration in electrophoresis.

B1: 5' flap (FAM) (mixed)
DNA 1: ATCGATAGTCGGATCCTCTAGACAGCTCCATGTAGCAAGGCACTGGTAGAATTCGGCAGCGT
DNA 2: GACGCTGCCGAATTCTACCAGTGCCTTGCTAGGACATCTTTGCCCACCTGCAGGTTCACCC
DNA 3: TGGGTGAACCTGCAGGTGGGCAAAGATGTCC
Regarding B1, in the series with DNA2 D277A [1], the binding result is “binds”.

B2: Y-structure (32P) (mixed)
DNA 1: ATCGATAGTCGGATCCTCTAGACAGCTCCATGTAGCAAGGCACTGGTAGAATTCGGCAGCGT
DNA 2: GACGCTGCCGAATTCTACCAGTGCCTTGCTAGGACATCTTTGCCCACCTGCAGGTTCACCC
Consider B2, for which, in the series with DNA2 D277A [2], the binding result is given as “binds”.
